Test results taken from the supplement of paper PMC10899765.

How the values were obtained:
Details in all cases: 20 nM; 72 h
MCF10A [1] = experiment: percent viability (nuclei count relative to siNT); higher = more viable cells
Procedure: (§1)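 After 72 h, cells were fixed and stained with Hoechst and anti-fibrillarin, and nucleoli per nucleus were counted with CellProfiler. Values are plate-adjusted percent effect for the one-nucleolus and 5+ nucleoli phenotypes, normalised to siNT (0%) and to the positive controls siNOL11 or siKIF11 (100%), as the mean of biological triplicates. Percent viability is the nuclei count relative to siNT.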

MCF10A [2] = experiment: 5+ nucleoli phenotype percent effect (relative to siNT 0% and siKIF11 100%); higher = more cells with five or more nucleoli
Procedure: as §1

MCF10A [3] = experiment: one-nucleolus phenotype percent effect (relative to siNT 0% and siNOL11 100%); higher = more cells with one nucleolus (ribosome biogenesis inhibition)
Procedure: as §1

Sequence	percent viability (MCF10A [1])	5+ nucleoli phenotype percent effect (MCF10A [2])	one-nucleolus phenotype percent effect (MCF10A [3])
CACUUAGCAGGUUGUAUUAUAU [hsa-miR-374c-3p]	50.7%	0.0114%	0.51%
CAAAGUGCUGUUCGUGCAGGUAG [hsa-miR-93-5p]	64.1%	59.5%	-18.1%
AGGCGGGGCGCCGCGGGACCGC [hsa-miR-663a]	62.8%	2.91%	0.191%
UCACAACAACCUUGCAGGGUAGA [hsa-miR-5003-5p]	80.1%	16.9%	-10.6%
GUGCCAGCUGCAGUGGGGGAG [hsa-miR-1202]	76.5%	44.3%	-8.53%
AUUGUCCCUCUCCCUUCCCAG [hsa-miR-4646-3p]	50.3%	-1.47%	-0.307%
UGGGGGAGCCAUGAGAUAAGAGCA [hsa-miR-4723-5p]	43.6%	2.14%	21.2%
UUCUCCAAAAGGGAGCACUUUC [hsa-miR-519e-5p]	39.5%	4.42%	-3.64%
AGGCAAGAUGCUGGCAUAGCU [hsa-miR-31-5p]	16.8%	-4.74%	26%
AGAACUCUUGCAGUCUUAGAUGU [hsa-miR-4680-5p]	72%	-12.8%	-11.5%
AUGGCAUCGUCCCCUGGUGGCU [hsa-miR-4642]	31.3%	-4.74%	16.6%
UGAGACCUCUGGGUUCUGAGCU [hsa-miR-769-5p]	47.4%	9.63%	7.1%
UAUGUGGGAUGGUAAACCGCUU [hsa-miR-299-3p]	45.6%	-20.9%	13.9%
UGGAGACGCGGCCCUGUUGGAGU [hsa-miR-139-3p]	68%	-24.5%	20.9%
UAAGUGCUUCCAUGUUUGAGUGU [hsa-miR-302d-3p]	68%	63.5%	-16.6%
AUAUUAUUAGCCACUUCUGGAU [hsa-miR-4795-3p]	27.9%	-25.8%	3.49%
GUGACUGAUACCUUGGAGGCAU [hsa-miR-4439]	56.4%	-27.6%	-2.03%
CAUCUUACUGGGCAGCAUUGGA [hsa-miR-200b-5p]	73.7%	0.989%	-11.1%
CACAUAUGAAGUGAGCCAGCAC [hsa-miR-5580-3p]	56.3%	-31.6%	-6.62%
UACUGCAGACGUGGCAAUCAUG [hsa-miR-509-3-5p]	26.5%	-30.4%	26.3%
AGCAAGGCGGCAUCUCUCUGAU [hsa-miR-4708-3p]	43.7%	-21.8%	16.1%
AAAAGUAAUCGCGGUUUUUGUC [hsa-miR-548h-5p]	101%	35.8%	-19.1%
UGGGGAGCUGAGGCUCUGGGGGUG [hsa-miR-939-5p]	82.5%	17%	-7.29%
